Source: US20240262923A1 (Sanofi, published 2024)
Like-named read-outs stand apart in the source and are kept apart here.

Columns and labels:
[1] = biological target: T1, human 4-1BB expressed on cells (300.19 pre-B cells, Jurkat NF-κB-luc2P cells, primary T-cells) (human, UniProt Q07011 24-255); test: cell-based or functional assay
[2] = biological target: T2, human PD-1 expressed on cells (300.19 pre-B cells, PD-1 NFAT-luc2 Jurkat cells, primary T-cells) (human, UniProt Q15116 25-288); test: cell-based or functional assay
[3] = biological target: T3, cynomolgus monkey PD-1 (SPR analyte) (cynomolgus monkey, UniProt B0LAJ3 25-170); test: SPR, KD on cyPD-1 against KD on hPD-1
T3 construct: also called cyPD-1

[4] = biological target: T1, human 4-1BB expressed on cells (300.19 …); test: flow cytometry on Jurkat reporter cells
[5] = biological target: T2, human PD-1 expressed on cells (300.19 …); test: flow cytometry on Jurkat reporter cells
[6] = biological target: T4, cynomolgus monkey 4-1BB (SPR analyte) (cynomolgus monkey, UniProt A9YYE7 24-186); test: SPR, KD on cy4-1BB against KD on h4-1BB
T4 construct: also called cy4-1BB
T4 sequence: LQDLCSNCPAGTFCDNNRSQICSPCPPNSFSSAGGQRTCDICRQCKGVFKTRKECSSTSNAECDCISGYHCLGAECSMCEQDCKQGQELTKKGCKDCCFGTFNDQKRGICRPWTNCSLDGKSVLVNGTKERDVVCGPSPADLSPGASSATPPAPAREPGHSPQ

[7] = biological target: T5, cynomolgus monkey PD-1 expressed on 300.19 pre-B cells (cynomolgus monkey, UniProt B0LAJ3 25-288); test: flow cytometry on transfected 300.19 pre-B cells
T5 construct: also called cyPD-1; Pre-B cyPD-1

[8] = biological target: T1, human 4-1BB expressed on cells (300.19 …); test: flow cytometry on transfected 300.19 pre-B cells
[9] = biological target: T6, cynomolgus monkey 4-1BB expressed on 300.19 pre-B cells (cynomolgus monkey, UniProt A9YYE7 24-254); test: flow cytometry on transfected 300.19 pre-B cells
T6 construct: whole, on cells; also called cy4-1BB; Pre-B cy4-1BB

[10] = biological target: T2, human PD-1 expressed on cells (300.19 …); test: flow cytometry on transfected 300.19 pre-B cells
[11] = biological target: T7, human 4-1BB (SPR analyte) (human, UniProt Q07011 24-186); test: SPR (Biacore 8K), binder captured on anti-Fc chip, target as analyte, 1:1 model
T7 construct: also called h4-1BB

human PD-1 (SPR analyte) [12] = biological target: T8, human PD-1 (SPR analyte) (human, UniProt Q15116 25-167, limits assumed); test: as above
T8 construct: Soluble analyte in SPR; also called hPD-1

[13] = biological target: T7, human 4-1BB (SPR analyte); test: as above; remark: listed apart in the source
[14] = biological target: T4, cynomolgus monkey 4-1BB (SPR analyte); test: as above
[15] = biological target: T3, cynomolgus monkey PD-1 (SPR analyte); test: as above
human PD-1 (SPR analyte) [16] = biological target: T8, human PD-1 (SPR analyte); test: as above; remark: listed apart in the source

T1 sequence (Q07011 24-255 limits assumed): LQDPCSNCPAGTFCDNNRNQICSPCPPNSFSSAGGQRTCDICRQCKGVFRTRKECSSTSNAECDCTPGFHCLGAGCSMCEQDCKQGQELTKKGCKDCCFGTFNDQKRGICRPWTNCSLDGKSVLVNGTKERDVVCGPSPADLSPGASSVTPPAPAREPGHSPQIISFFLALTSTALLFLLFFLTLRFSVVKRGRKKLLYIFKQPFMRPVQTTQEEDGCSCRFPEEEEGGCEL
T8 sequence (Q15116 25-167 limits assumed): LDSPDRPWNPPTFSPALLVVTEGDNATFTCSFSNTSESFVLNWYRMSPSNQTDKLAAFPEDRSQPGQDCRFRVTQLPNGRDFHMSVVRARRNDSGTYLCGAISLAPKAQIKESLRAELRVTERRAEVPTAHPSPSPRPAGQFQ
T2 sequence (Q15116 25-288 limits assumed): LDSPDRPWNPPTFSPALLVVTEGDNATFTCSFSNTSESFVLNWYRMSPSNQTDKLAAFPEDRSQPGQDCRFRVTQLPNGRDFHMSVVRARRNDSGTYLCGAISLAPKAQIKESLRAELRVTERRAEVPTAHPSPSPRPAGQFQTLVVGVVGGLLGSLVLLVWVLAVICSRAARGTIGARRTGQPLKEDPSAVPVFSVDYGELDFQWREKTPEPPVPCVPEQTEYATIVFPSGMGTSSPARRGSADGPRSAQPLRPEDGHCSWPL
T5 sequence (B0LAJ3 entry or part of it limits assumed): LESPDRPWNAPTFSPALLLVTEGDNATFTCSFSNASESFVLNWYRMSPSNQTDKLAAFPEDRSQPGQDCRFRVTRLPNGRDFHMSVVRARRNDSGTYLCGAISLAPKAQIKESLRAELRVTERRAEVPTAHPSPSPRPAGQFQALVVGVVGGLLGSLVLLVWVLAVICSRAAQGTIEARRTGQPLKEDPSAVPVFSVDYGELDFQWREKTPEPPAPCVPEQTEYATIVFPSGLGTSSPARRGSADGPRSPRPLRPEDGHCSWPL
T3 sequence (B0LAJ3 entry or part of it limits assumed): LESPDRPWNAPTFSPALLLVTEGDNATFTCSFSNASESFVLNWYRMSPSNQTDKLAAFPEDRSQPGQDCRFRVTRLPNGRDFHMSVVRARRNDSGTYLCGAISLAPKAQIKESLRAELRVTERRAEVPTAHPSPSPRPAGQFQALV

B1: Construct #3 (anti-4-1BB/anti-PD-1 bispecific binding molecule) (bispecific antibody, IgG1)
heavy: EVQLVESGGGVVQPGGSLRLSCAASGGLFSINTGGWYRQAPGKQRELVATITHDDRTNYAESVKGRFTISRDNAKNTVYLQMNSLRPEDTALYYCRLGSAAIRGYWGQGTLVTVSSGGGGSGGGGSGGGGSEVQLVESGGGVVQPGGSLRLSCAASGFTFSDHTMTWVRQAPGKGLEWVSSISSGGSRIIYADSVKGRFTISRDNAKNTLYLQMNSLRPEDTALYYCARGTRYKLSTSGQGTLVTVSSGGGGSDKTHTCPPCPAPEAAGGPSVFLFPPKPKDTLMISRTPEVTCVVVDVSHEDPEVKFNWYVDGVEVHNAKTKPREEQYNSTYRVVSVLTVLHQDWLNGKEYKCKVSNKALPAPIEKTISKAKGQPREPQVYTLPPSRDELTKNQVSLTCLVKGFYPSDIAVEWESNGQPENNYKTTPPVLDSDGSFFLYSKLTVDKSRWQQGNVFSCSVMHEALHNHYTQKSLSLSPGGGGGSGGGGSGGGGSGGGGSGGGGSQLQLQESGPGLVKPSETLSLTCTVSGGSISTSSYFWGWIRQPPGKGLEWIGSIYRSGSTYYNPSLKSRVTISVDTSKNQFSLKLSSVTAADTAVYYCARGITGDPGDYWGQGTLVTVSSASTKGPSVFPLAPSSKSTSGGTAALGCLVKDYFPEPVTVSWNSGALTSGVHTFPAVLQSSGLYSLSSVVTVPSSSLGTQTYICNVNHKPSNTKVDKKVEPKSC
light: EIVLTQSPATLSLSPGERATLSCGASQSVSINFLAWYQQKPGLAPRLLIYEASSRATGIPDRFSGSGSGTDFTLTISRLEPEDFAVYYCQQYGSSPYTFGQGTKLEIKRTVAAPSVFIFPPSDEQLKSGTASVVCLLNNFYPREAKVQWKVDNALQSGNSQESVTEQDSKDSTYSLSSTLTLSKADYEKHKVYACEVTHQGLSSPVTKSFNRGEC
notes: also called Original Construct #3
EC50 (nM) 4-1BB reporter assay [1]: 0.1 nM | IC50 (nM) PD-1 reporter assay [2]: 6.7 nM | Ratio KD cyno/human [3]: 2.6 fold | EC50 [4]: 0.191 nM | EC50 [5]: 12.3 nM | Emax [5]: 321 MFI | Ratio KD cyno/human [6]: 2.1 fold | EC50 [7]: 7.77 nM | Emax [7]: 13800 MFI | EC50 [8]: 0.299 nM | EC50 [9]: 0.312 nM | EC50 [10]: 3.69 nM | Emax [10]: 3750 MFI | Kd [11]: 7.82 nM | Kd (human PD-1 (SPR analyte) [12]): 16 nM | Kd [13]: 11.8 nM | Kd [14]: 25.1 nM | Kd [15]: 18.2 nM | Kd (human PD-1 (SPR analyte) [16]): 7.05 nM
